The text below walks through data of patent US20240254224A1 (UCB, published 2024).

Assay in all cases: SPR (Biacore T200), TREM1 ECD over antibody captured by anti-human Fc
In general terms: Surface plasmon resonance follows binding to a sensor surface in real time, without labels.

Assay [1] concerns the target T1, pig TREM1 ECD (in house, His tagged) (pig, UniProt Q6TYI6 21-210).
T1 construct: extracellular domain
T1 sequence (looked up): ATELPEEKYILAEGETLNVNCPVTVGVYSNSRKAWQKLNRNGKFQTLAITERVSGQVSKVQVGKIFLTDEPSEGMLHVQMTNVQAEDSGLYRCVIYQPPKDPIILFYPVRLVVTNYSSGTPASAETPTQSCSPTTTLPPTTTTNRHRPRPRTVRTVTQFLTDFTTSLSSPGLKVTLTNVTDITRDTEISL
As to the method:
(§1) The species tested were human, cynomolgus, rhesus, marmoset, rat, mouse, dog and pig.
(§2) TREM1 ECD analyte (in house, His tagged) was injected at 3-fold serial dilutions in HBS-EP+ running buffer (GE Healthcare), top concentrations are shown in Table 15, and three-fold serial dilutions were performed to a bottom concentration of 2 nM. Buffer blank injections were included to subtract instrument noise and drift.

Assay [2] concerns the target T2, marmoset TREM1 ECD (in house, His tagged) (marmoset, UniProt A0A8I3WDM5 21-206).
T2 construct: extracellular domain
T2 sequence: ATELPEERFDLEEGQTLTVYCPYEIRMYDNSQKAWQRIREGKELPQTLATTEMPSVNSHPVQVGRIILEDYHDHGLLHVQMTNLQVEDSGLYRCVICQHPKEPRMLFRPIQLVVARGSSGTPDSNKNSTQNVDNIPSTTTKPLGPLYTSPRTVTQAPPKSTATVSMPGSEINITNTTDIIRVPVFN
As to the method:
as §1, §2

Assay [3] concerns the target T3, mouse TREM1 ECD (in house, His tagged) (mouse, UniProt Q9JKE2 21-202).
T3 construct: extracellular domain
T3 sequence (looked up): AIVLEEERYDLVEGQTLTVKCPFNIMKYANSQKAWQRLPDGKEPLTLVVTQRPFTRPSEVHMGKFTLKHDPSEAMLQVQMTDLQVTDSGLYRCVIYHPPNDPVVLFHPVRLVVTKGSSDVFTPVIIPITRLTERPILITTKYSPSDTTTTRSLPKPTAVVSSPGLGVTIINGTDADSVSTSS
As to the method: as §1, §2

B1: 12172 gL2gH11 hIgG4P (antibody)
heavy: not shown
light: DIQLTQSPSFLSASVGDRVTITCQASQNIGSDLAWYQQKPGKAPKLLIYKAATLASGVPSRFSGSGSGTEFTLTISSLQPEDFATYYCQQYYYGSAGADTDTFGGGTKVEIKRTVAAPSVFIFPPSDEQLKSGTASVVCLLNNFYPREAKVQWKVDNALQSGNSQESVTEQDSKDSTYSLSSTLTLSKADYEKHKVYACEVTHQGLSSPVTKSFNRGEC
notes: Humanised IgG4P, human kappa; also called 12172gL2gH11 IgG4P
Take B1: the binding result in assay [1] is recorded as “no binding (tested: 490 nM)”; in assay [2], “no binding (tested: 510 nM)”; in assay [3] it was “no binding (tested: 520 nM)”.
